Patent US6344189B1, “Use of protease inhibitors for treating skin wounds” (Biotech Australia Pty., Ltd., priority 1998, dated 2002)
“Also recorded” adds a separate entry of the source. Where two headings read alike, the source gives them in different places. Where a SMILES comes first, the peptide text is derived from it. [ ]: non-standard residue; d: D form. The star is where a group is joined. Sta = CC(C)C[C@H](N)[C@@H](O)CC(=O)O; Isovaleryl = CC(C)CC(=O)*

What was measured:
[1] = tested on: protease activity in wound fluid; experiment: Inhibition of protease activity in wound fluid in vitro, substrate ZGGRAMC, fluorescence at 460 nm; type: biochemical, patients
Procedure: Wound fluid was collected from patients with chronic venous leg ulcers, and incubated in vitro in the presence or absence of each inhibitor along with the protease substrate ZGGRAMC. Cleavage of this substrate indicated protease activity, which was detected by fluorescence at 460 nm. Lack of fluorescence indicated inhibition of protease activity.
Conditions were as described above for single inhibitors.

[2] = tested on: chronic venous leg ulcers; experiment: Double blind placebo controlled randomized trial of topical PAI-2, ulcer area by tracing; type: in vivo, patients; conditions: PAI-2 20 μg per cm^2 topical, five consecutive days; 29-day course; compared with placebo
From the text: The study was a double blind placebo controlled randomized trial. A stratified randomization was utilized according to ulcer size. Patients with ulcers less than, and greater than, 20 cm^2 were randomized separately. No minimum or maximum times were set for the patients' current ulcer episode. Minimum and maximum ulcer areas were 2 cm^2 and 50 cm^2, and a patient's resting ankle brachial doppler arterial pressure index for inclusion was equal to or greater than 0.80.
All patients received compression bandaging. The area of the ulcer was determined by tracing, and the test solution, either PAI-2 at 1.0 mg/ml in phosphate buffered saline, pH 7.0, or buffer alone, was applied at 20 μl (20 ,μg in the case of PAI-2) per cm^2. The patient was asked to lie recumbent on the examination couch while the test solution was applied to the surface of the wound, and to remain there for 15 minutes before bandaging was applied.
(§1) Test solution was applied in this manner for five consecutive days. This was followed by visits on days 15, 22, and 29. Ulcer area determination was made on days 1, 5, 15, 22, and 29, ulcer volume was measured by structured light assessment on days 1, 5, and 29, and the ulcer was photographed on days 1, 5, and 29. Adverse events were assessed at each visit, as were concomitant medications.

[3] = tested on: uPA; experiment: uPA activity in patients' wound fluid by Chromolise assay; type: in vivo
Procedure: (§2) In addition, wound fluid was collected on the first day before addition of test solution, and 2 hr, 4 hr, and 6 hr afterwards. Wound fluid collection was also made on days 2, 3, 4, and 5 (before test solution addition) and day 29. Blood samples were taken on day 1 at 0 (before), 0.5 hr, 1 hr, and 2 hr after the test solution, and also at day 5. A punch biopsy was taken for histochemical examination of the ulcer edge on day 5.
(§3) All wound fluid samples were analyzed for uPA activity by the Chromolise assay, and for total protein by the Bradford assay. If sufficient wound fluid was available, the following assays were also performed, in order of priority: (i) PAI-2 antigen level, by ELISA; (ii) a Western blot to detect whether the PAI-2 molecule was intact, complexed, or in fragments; (iii) total protease activity, determined by a chromogenic assay using azo-casein as substrate, and (iv) total protease activity in the presence of EDTA (to block metalloproteases) or aprotinin (to block plasmin). In addition, blood samples were analyzed by PAI-2 ELISA (0, 0.5, 1, 2 hr on day 1) and analyzed for FBC and clinical chemistry on day 1(0) and day 5.
(§4) The ELISA used for PAI-2 detected both glycosylated and non-glycosylated PAI-2, and both complexed (with uPA or tPA) and uncomplexed PAI-2. Insufficient wound fluid was obtained for total protease assays in the presence of aprotinin or EDTA. The variation in ulcer volume measurements by structured light assessment was very large:—20.4% on repeated measurements, so those data could not be used to judge small changes in ulcer volume.

[4] = PAI-2 antigen level by ELISA and Western blot in wound fluid and blood samples; type: in vivo, patients; conditions: for level of PAI-2 in wound fluid: first visit
Procedure: as §2, §3, §4

[5] = tested on: total protease activity in wound fluid; experiment: Total protease activity in wound fluid, chromogenic assay with azo-casein substrate; type: in vivo, patients; conditions: ng/ml of wound fluid or ng/mg protein
Procedure: as §3

[6] = Adverse events and histological examination of ulcer edge biopsies; type: in vivo, patients
Procedure: as §1, §2
Histological examination was performed on biopsies taken at visit 5 after staining with hematoxylin and eosin. […] This effect is likely to be beneficial to the ulcer.

[7] = Stability of PAI-2 in wound fluid; type: in vitro ADME; conditions: 3-hour period, FIG. 1
Procedure: (§5) It also is apparent that the inhibitors must be stable in the wound fluid to be effective in aiding wound healing. In the context of the present invention, an inhibitor is suitably stable when it retains at least 50% of its activity after exposure to wound fluid for 3 hours. In this regard, therefore, it is particularly desirable to use an inhibitor that inhibits uPA and is stable in wound fluid.

[8] = target: T1, uPA (Homo sapiens, UniProt P00749); experiment: Addition of PAI-2 to wound fluid, uPA activity; type: biochemical; conditions: PAI-2 added to wound fluid
T1 construct: from tissue; host or cells: wound fluid
Procedure: as §5

[9] = PAI-2 release from gel in two compartment vessel with microporous membrane; type: physicochemical; conditions: cellulose gel, presence of Tween80, FIG. 4
From the text: In these experiments, the PAI-2 containing gel was placed in the top chamber of a two compartment vessel. The bottom chamber contained buffer, and the two chambers were separated by a microporous membrane. The appearance of PAI-2 in the lower chamber indicated PAI-2 release from the gel, and was monitored by assays for PAI-2 activity.

[10] = single inhibitors, wound fluid of chronic venous leg ulcers

O=C(O)CN(CCN(CC(=O)O)CC(=O)O)CC(=O)O [EDTA, ethylene diamine tetraacetic acid]
Percent Inhibition [1, 10]: 0%

CCN1C(=O)C=CC1=O [NEM, N-ethyl maleimide]
Percent Inhibition [1, 10]: 21%

glutamic acid-glycine-arginine chloromethyl ketone [EGRCK]
Percent Inhibition [1]: 94%

N=C(N)NC(=O)c1nc(Cl)c(N)nc1N [Amiloride]
Percent Inhibition [1, 10]: 96%

CC(C)CC(=O)N[C@H](C(=O)N[C@H](C(=O)N[C@@H](CC(C)C)[C@@H](O)CC(=O)N[C@@H](C)C(=O)N[C@@H](CC(C)C)[C@@H](O)CC(=O)O)C(C)C)C(C)C [Pepstatin] (Isovaleryl-VV[Sta]A[Sta]-OH)
Percent Inhibition [1, 10]: 0%

B1: plasminogen activator inhibitor 2 (protein, UniProt P05120 1-415, looked up)
Plasminogen activator …: MEDLCVANTLFALNLFKHLAKASPTQNLFLSPWSISSTMAMVYMGSRGSTEDQMAKVLQFNEVGANAVTPMTPENFTSCGFMQQIQKGSYPDAILQAQAADKIHSSFRSLSSAINASTGNYLLESVNKLFGEKSASFREEYIRLCQKYYSSEPQAVDFLECAEEARKKINSWVKTQTKGKIPNLLPEGSVDGDTRMVLVNAVYFKGKWKTPFEKKLNGLYPFRVNSAQRTPVQMMYLREKLNIGYIEDLKAQILELPYAGDVSMFLLLPDEIADVSTGLELLESEITYDKLNKWTSKDKMAEDEVEVYIPQFKLEEHYELRSILRSMGMEDAFNKGRANFSGMSERNDLFLSEVFHQAMVDVNEEGTEAAAGTGGVMTGRTGHGGPQFVADHPFLFLIMHKITNCILFFGRFSSP
ulcer area [2]: significant decrease in the area of leg ulcers compared to controls; also recorded: a reduction in the ulcer area
specific activity of uPA (ng/mg of total protein in wound fluid) ([3]; first day of PAI-2 administration, relative to placebo group): declined over 6 hrs
difference in uPA between the two groups expressed as units/ml of wound fluid ([3]; per ml of wound fluid rather than per mg total protein): not apparent
uPA activity in wound fluid ([3]; subsequent days over the course of the study, PAI-2 vs placebo): no significant difference
intact PAI-2 in wound fluid, Western blot ([4]; 2 hr): significant amounts of intact PAI-2
level of PAI-2 in wound fluid ([4]; 2 hr after topical application): increased dramatically
level of PAI-2 in wound fluid ([4]; 4 hr after topical application): declined almost to baseline
systemic distribution of topically applied PAI-2 ([4]; blood samples, PAI-2 ELISA): No evidence of systemic distribution
total protease activity [5]: did not appear to be altered
damage to the tissue, histological examination ([6]; biopsies at visit 5, hematoxylin and eosin): No evidence of damage to the tissue
systemic toxicity ([6]; in vivo): does not appear to have systemic toxicity
adverse events ([6]; topical PAI-2, chronic leg ulcers, course of the study): none of the adverse events was deemed related to the PAI-2 treatment
stability in wound fluid [7]: relatively stable in wound fluid
uPA activity in wound fluid [8]: caused the inhibition of uPA activity
release of PAI-2 from gel [9]: enhanced release
